Measured values taken from article PMC5602543.

Key:
[1] = target: MPyV VP1 (major capsid protein of mouse polyomavirus) as VLPs of the VarB structure (mouse polyomavirus (MPyV)) (UniProt P03090); test: co-purification with VLPs (SDS-PAGE, Western blot, band densitometry); VP1 and FLAG-Cap-tVP3 co-expressed in insect cells; purified VLPs VarB resolved by SDS-PAGE, anti-FLAG blot; densities of Coomassie-stained bands measured
[2] = target: VarC (VP1-Cap-His: entire PCV2b Cap fused to the C-terminus of MPyV VP1) (mouse polyomavirus (MPyV) | porcine circovirus 2b (PCV2b)) (UniProt P03090); test: native gel or EMSA; blue native PAGE (BN-PAGE) of purified VarC, native 3-12% gradient gel, Gelcode staining

With “FLAG-Cap-tVP3 (entire PCV2b Cap fused with truncated MPyV minor capsid protein VP3)” the stoichiometry N (FLAG-Cap-tVP3 molecules per one particle) [1] was 12 and the stoichiometry N ([1]; scale: molecules of Cap protein per one VLP) was 14.
“VarC (VP1-Cap-His: entire PCV2b Cap fused to the C-terminus of MPyV VP1) (from UniProt P03090 1-383)” was tested, and the stoichiometry N [2] was 10.
